Data: patent US20240343815A1 (CHIA TAI TIANQING PHARMACEUTICAL GROUP, published 2024)
Substitutions are numbered along the chain they refer to. Read-outs that look alike come from different tables or passages of the source. One block for each binder: values may come before it.

Assays:
[1] = target: T1, human IL4Rα on HEK293T-IL4Rα-STAT6-STAT6LUC-LB2 cells (human, UniProt P24394 26-825); assay: cell-based or functional assay
[2] = target: T1, human IL4Rα on …; assay: cell-based or functional assay; remark: listed apart in the source
[3] = target: T2, recombinant human IL4Rα-his protein (human, UniProt P24394 26-232, biotinylated in the capture ELISA and the benchmark blocking ELISA); assay: SPR Biacore, mAb captured, IL4Rα-his analyte
T2 construct: also called biotinylated human IL4Rα-his protein
Method: Briefly, a goat anti-human IgG (GE Healthcare, Cat. No. BR100839, Human Antibody Capture Kit) was covalently attached to a CMS chip (carboxymethylated dextran-coated chip) via the primary amine group using a standard amine coupling kit supplied by Biacore (GE Healthcare, Pittsburgh, PA, USA). Unreacted portions on the biosensor surface were blocked with ethanolamine. Then, the anti-IL4Rα antibody in the present disclosure at 66.67 nM and an anti-IL4Rα antibody benchmark (dupilumab, or DUPIXENT® or BM) at 10 μg/mL were directed through the chip at a flow rate of 10 μL/min. A recombinant human IL4Rα-his protein (prepared in-house, amino acid sequence set forth in SEQ ID NO: 15), a cynomolgus monkey IL4Rα-his protein (Sino Biological Inc., Cat. No. 90897-008H), or a marmoset monkey IL4Rα-his protein (customized product from Sino Biological Inc., denoted as cal-IL4Rα-his, amino acid sequence set forth in SEQ ID NO: 16) serially diluted with an HBS EP buffer (supplied by Biacore) was directed through the chip at a flow rate of 30 μIJmin. The antigen-antibody binding kinetics was tracked for 2 min and the dissociation kinetics was tracked for 10 min. The association and dissociation curves were fitted according to a 1:1 Langmuir binding model using BIA evaluation software, and the KD, Kₐ, and Kd values were determined.
According to the protocol in the examples above, the binding affinity of the humanized antibodies to human IL4Rα was assessed by the BIAcore technique, and the Kₐ, Kd, and KD values were determined and summarized in Table 3.

[4] = target: T2, recombinant human IL4Rα-his protein; assay: SPR Biacore, mAb captured from supernatant, IL4Rα-his analyte

B3: huC2C1A1A1-V6 (antibody, human IgG4 S228P, kappa, V domains shown)
VH: EVQLVESGGGLVQPGGSLRLSCAASGFTFSTYGMSWVRQSPDKRLEWVSTINSNGGSTSYPDSVKGRFTISRDNAKNTLYLQMRSLRAEDTAVYYCARFFRFRNAMDYWGQGTLVTVSS
VL: DIQMTQSPSSLSASVGQRVTITCRTSENIYSYLAWYQQKQGKPPRFLIYNAKTLAEGVPSRFSGSGSGTEFTLTITSLQAEDFGVYYCQHYYGPPTWTFGPGTKLEIKR
notes: Humanized IgG4/kappa
- Dissociation (%) [3]: -0.59%

B4: huC2C1A1A1-V4 (antibody, human IgG4 S228P, kappa, V domains shown)
VH: B3 VH with S40A, D42G, R44G, E46V, R84N
VL: DIQMTQSPSSLSASVGDRVTITCRTSENIYSYLAWYQQKPGKAPKFLIYNAKTLAEGVPSRFSGSGSGTDFTLTISSLQPEDFATYYCQHYYGPPTWTFGQGTKVEIKR
notes: Humanized IgG4/kappa
- Dissociation (%) [3]: 0.2%

B5: huC2C1A1A1-V10 (antibody, human IgG4 S228P, kappa, V domains shown)
VH: B3 VH with S40A, D42G, R44G, E46V, W47L, S49A, R84N
VL: B3 VL
notes: Humanized IgG4/kappa
- Dissociation (%) [3]: -1.54%

B8: huC2C1A1A1-V14 (antibody, human IgG4 S228P, kappa, V domains shown)
VH: B3 VH with S40A, D42G, R44G, E46V, S49A, R84N
VL: B3 VL
notes: Humanized IgG4/kappa
- Inhibition of IL4-induced STAT6 phosphorylation (IC50, nM) [2]: 0.64 nM
- Inhibition of IL13-induced STAT6 phosphorylation (IC50, nM) [2]: 0.73 nM
- Dissociation (%) [3]: 0.8%

B10: huC2C1A1A1-V3 (antibody, human IgG4 S228P, kappa, V domains shown)
VH: B3 VH with S40A, D42G, R44G, E46V, R84N
VL: B4 VL with I48V
notes: Humanized IgG4/kappa
- Dissociation (%) [3]: -0.62%

B11: huC2C1A1A1-V2 (antibody, human IgG4 S228P, kappa, V domains shown)
VH: B3 VH with S40A, D42G, R44G, E46V, R84N
VL: B3 VL
notes: Humanized IgG4/kappa
- Dissociation (%) [3]: -0.2%

B12: huC2C1A1A1-V15 (antibody, human IgG4 S228P, kappa, V domains shown)
VH: B3 VH with S40A, D42G, R44G, E46V, S49A, R84N
VL: B4 VL with I48V
notes: Humanized IgG4/kappa
- Inhibition of IL4-induced STAT6 phosphorylation (IC50, nM) [2]: 0.61 nM
- Inhibition of IL13-induced STAT6 phosphorylation (IC50, nM) [2]: 0.6 nM
- Dissociation (%) [3]: 0.29%

B13: huC2C1A1A1-V8 (antibody, human IgG4 S228P, kappa, V domains shown)
VH: B3 VH
VL: B4 VL
notes: Humanized IgG4/kappa
- Dissociation (%) [3]: -1.23%

B14: huC2C1A1A1-V5 (antibody, human IgG4 S228P, kappa, V domains shown)
VH: B3 VH
VL: B4 VL with F46L
notes: Humanized IgG4/kappa
- Dissociation (%) [3]: -2.28%

B16: huC2C1A1A1-V7 (antibody, human IgG4 S228P, kappa, V domains shown)
VH: B3 VH
VL: B4 VL with I48V
notes: Humanized IgG4/kappa
- Dissociation (%) [3]: -0.66%

More lines, now with the values ahead:

- Inhibition of IL4-induced STAT6 phosphorylation (IC50, nM) [1]: 0.19 nM
- Inhibition of IL13-induced STAT6 phosphorylation (IC50, nM) [1]: 0.27 nM
B1: Mouse C2C1A1A1 (antibody, V domains shown)
VH: B3 VH with R19K, S40T, W47L, S49A, R84S, R87K, A88S, V93M, Y94F, L114S
VL: DIQMTQSPASLSASVGETVTITCRTSENIYSYLAWYQQKQGKSPQFLVYNAKTLAEGVPSRFSGSGSGTQFSLNINSLQSEDFGSYYCQHYYGPPTWTFGGGTKLEIK

- Inhibition of IL4-induced STAT6 phosphorylation (IC50, nM) [1]: 0.27 nM
- Inhibition of IL13-induced STAT6 phosphorylation (IC50, nM) [1]: 0.56 nM
- Inhibition of IL4-induced STAT6 phosphorylation (IC50, nM) [2]: 0.26 nM
- Inhibition of IL13-induced STAT6 phosphorylation (IC50, nM) [2]: 0.39 nM
- Dissociation (%) [3]: -1.94%
- End (RU) [3]: 65.8 RU
- Kd [3]: < 0.0304 nM
- Start (RU) [3]: 67.1 RU
- koff [3]: < 1e-05 s⁻¹
- Kd [4]: 0.111 nM
- koff [4]: 4.04e-05 s⁻¹
B2: Chimeric C2C1A1A1 (antibody, human IgG4 S228P, kappa, V domains shown)
VH: B3 VH with R19K, S40T, W47L, S49A, R84S, R87K, A88S, V93M, Y94F, L114S
VL: DIQMTQSPASLSASVGETVTITCRTSENIYSYLAWYQQKQGKSPQFLVYNAKTLAEGVPSRFSGSGSGTQFSLNINSLQSEDFGSYYCQHYYGPPTWTFGGGTKLEIKR
notes: Mouse variable regions on human IgG4 / kappa constant regions; also called chimeric antibody; Supernatant containing chimeric C2C1A1A1

- Dissociation (%) [3]: 0.82%
B6: huC2C1A1A1-V13 (antibody, human IgG4 S228P, kappa, V domains shown)
VH: B3 VH with S40A, D42G, R44G, E46V, S49A, R84N
VL: B4 VL with F46L
notes: Humanized IgG4/kappa

- Dissociation (%) [3]: -0.92%
B7: huC2C1A1A1-V11 (antibody, human IgG4 S228P, kappa, V domains shown)
VH: B3 VH with S40A, D42G, R44G, E46V, W47L, S49A, R84N
VL: B4 VL with I48V
notes: Humanized IgG4/kappa

- Dissociation (%) [3]: -1.88%
B9: huC2C1A1A1-V12 (antibody, human IgG4 S228P, kappa, V domains shown)
VH: B3 VH with S40A, D42G, R44G, E46V, W47L, S49A, R84N
VL: B4 VL
notes: Humanized IgG4/kappa

- Dissociation (%) [3]: -0.42%
B15: huC2C1A1A1-V16 (antibody, human IgG4 S228P, kappa, V domains shown)
VH: B3 VH with S40A, D42G, R44G, E46V, S49A, R84N
VL: B4 VL
notes: Humanized IgG4/kappa

- Dissociation (%) [3]: -0.24%
B17: huC2C1A1A1-V9 (antibody, human IgG4 S228P, kappa, V domains shown)
VH: B3 VH with S40A, D42G, R44G, E46V, W47L, S49A, R84N
VL: B4 VL with F46L
notes: Humanized IgG4/kappa

- Dissociation (%) [3]: 0.23%
B18: huC2C1A1A1-V1 (antibody, human IgG4 S228P, kappa, V domains shown)
VH: B3 VH with S40A, D42G, R44G, E46V, R84N
VL: B4 VL with F46L
notes: Humanized IgG4/kappa
